Biological target: T1, human BAFF-R, endogenous, on human B-cell lines, primary lymphoma cells and normal B cells (human, UniProt Q96RJ3 1-184)
T1 construct: whole, on cells; also called BAFF-R-positive human MCL lines (Mino, JeKo-1, REC-1, JVM-13, Z-138); NHL lines JeKo-1, SU-DHL-6, Raji, RL
Experiment: flow cytometry, Alexa Fluor 488-conjugated chimeric antibody on primary NHL patient samples

Binder	binding result
chimeric anti-human BAFF-R antibody C55 (Clone 55 variable regions, human IgG1 constant regions) (antibody, V domains shown, Conjugated to Alexa Fluor 488 in FIG. 1D (sites not given), also called chimeric C55; Chi55) VH: QVTLKESGPGILKPSQTLSLTCSFSGFSLSTSGMGVGWIRQPSGKGLEWLAHIWWDDDKYYNSSLKSHLTISKDTSRNQVFLKITSVDTADTATYYCARSFGYGLDYWGQGTTLTVSS VL: DIQMTQTTSSLSASLGDRVTISCSASQDISNYLNWYQQKPDGTVKLLIYYTSSLHSGVPSRFSGSGSGTDYSLTISSLEPEDIATYYCHQFSELPWTFGGGTKLEIK	binds

Biological target: T1, human BAFF-R, endogenous, on human …
Experiment: flow cytometry, hybridoma supernatant at 1/10, 1/50 and 1/200 with anti-mouse IgG-APC on Mino; 293T as negative control
Source text: Figure 8: FIG. 8 are flow cytometry results showing verification that selected hybridoma clones bind MCL cells. Binding of hybridoma Clone 53, 55, 67, and 90 supernatants (1/10, 1/50, and 1/200 dilutions) to Mino (mantle cell lymphoma) and 293T (negative control) cell lines assessed by flow cytometry performed with anti-mouse IgG-APC.

Binder	binding result
mouse monoclonal antibody from hybridoma Clone 55 (antibody, V domains shown, also called mouse mAb C55) VH: QVTLKESGPGILKPSQTLSLTCSFSGFSLSTSGMGVGWIRQPSGKGLEWLAHIWWDDDKYYNSSLKSHLTISKDTSRNQVFLKITSVDTADTATYYCARSFGYGLDYWGQGTTLTVSS VL: DIQMTQTTSSLSASLGDRVTISCSASQDISNYLNWYQQKPDGTVKLLIYYTSSLHSGVPSRFSGSGSGTDYSLTISSLEPEDIATYYCHQFSELPWTFGGGTKLEIK	binds

Biological target: T2, commercial, recombinant extracellular domain of human BAFF-R (human, UniProt Q96RJ3 1-78)
T2 construct: extracellular domain
Experiment: Biacore analysis; antibody as loading sample, recombinant human BAFF-R ECD as sample
Protocol: The chimeric anti-BAFF-R antibody C90 was humanized with several variants. The humanization process took into consideration and analysis of the variable region and specifically the CDRs of the chimeric antibody. From there, three variants for each heavy and light chain was developed with varying degrees of human-likeness ranging from 1 the most human to 3 the most conservative to the chimeric. The variants were combined to produce 9 variants. Biacore analysis was performed on each variant as well as the chimeric parental C90 to determine their equilibrium dissociation constant K_D. The antigen was commercial, recombinant extracellular domain of human BAFF-R.

Binder	koff	kon	Kd
chimeric anti-human BAFF-R antibody C90 (Clone 90 variable regions, human IgG1 constant regions) (antibody, V domains shown, also called chimeric C90; Chi90) VH: EVQLQESGPSLVKPSQTLSLTCSVTGDSITSGYWNWIRKFPGNKLEYMGYISYSGSTYYNPSLKSRISITRDTSKNQYYLQLNSVTPEDTATYYCASPNYPFYAMDYWGQGTSVTVSS VL: not shown	0.002 s⁻¹	990000 M⁻¹ s⁻¹	–
humanized C90 variant HC1 + LC3 (antibody, V domains shown, also called Humanized HC1 + LC3; Hu90 HC-1 with Hu90 LC-3) VH: QVQLQESGPGLVKPSQTLSLTCTVSGDSITSGYWNWIRQHPGKGLEYIGYISYSGSTYYNPSLKSRVTISRDTSKNQFSLKLSSVTAADTAVYYCASPNYPFYAMDYWGQGTLVTVSS VL: DIVMTQSPSSLSASVGDRVTITCRASESVDNYGISFMNWFQQKPGKAPKLLIYAASNLGSGVPSRFSGSGSGTDFTLTISSLQPEDFATYYCQQSKEVPWTFGQGTKVEIKR	0.0021 s⁻¹	410000 M⁻¹ s⁻¹	5 nM
humanized C90 variant HC2 + LC1 (antibody, V domains shown, also called Humanized HC2 + LC1; Hu90 HC-2 with Hu90 LC-1) VH: EVQLQESGPGLVKPSQTLSLTCTVSGDSITSGYWNWIRQHPGKGLEYIGYISYSGSTYYNPSLKSRVTISRDTSKNQYSLKLSSVTAADTAVYYCASPNYPFYAMDYWGQGTLVTVSS VL: EIVLTQSPATLSLSPGERATLSCRASESVDNYGISFLNWFQQKPGQAPRLLIYAASNRATGIPARFSGSGSGTDFTLTISSLEPEDFAVYYCQQSKEVPWTFGGGTKVEIKR	0.002 s⁻¹	770000 M⁻¹ s⁻¹	2.6 nM
humanized C90 variant HC3 + LC2 (antibody, V domains shown, also called Humanized HC3 + LC2; Hu90 HC-3 with Hu90 LC-2) VH: EVQLQESGPGLVKPSETLSLTCSVSGDSITSGYWNWIRQPPGKGLEYIGYISYSGSTYYNPSLKSRVTISRDTSKNQYSLRLSSVTAADTALYYCASPNYPFYAMDYWGQGTRVTVSS VL: DIVLTQSPATLSLSPGERATLSCRASESVDNYGISFMNWFQQKPGQAPRLLIYAASNRATGIPARFSGSGSGTDFTLTISSLEPEDFAVYYCQQSKEVPWTFGGGTKVEIKR	0.0037 s⁻¹	1.2e+06 M⁻¹ s⁻¹	3.1 nM
humanized C90 variant HC3 + LC1 (antibody, V domains shown, also called Humanized HC3 + LC1; Hu90 HC-3 with Hu90 LC-1) VH: EVQLQESGPGLVKPSETLSLTCSVSGDSITSGYWNWIRQPPGKGLEYIGYISYSGSTYYNPSLKSRVTISRDTSKNQYSLRLSSVTAADTALYYCASPNYPFYAMDYWGQGTRVTVSS VL: EIVLTQSPATLSLSPGERATLSCRASESVDNYGISFLNWFQQKPGQAPRLLIYAASNRATGIPARFSGSGSGTDFTLTISSLEPEDFAVYYCQQSKEVPWTFGGGTKVEIKR	0.0031 s⁻¹	820000 M⁻¹ s⁻¹	3.8 nM
humanized C90 variant HC1 + LC2 (antibody, V domains shown, also called Humanized HC1 + LC2; Hu90 HC-1 with Hu90 LC-2) VH: QVQLQESGPGLVKPSQTLSLTCTVSGDSITSGYWNWIRQHPGKGLEYIGYISYSGSTYYNPSLKSRVTISRDTSKNQFSLKLSSVTAADTAVYYCASPNYPFYAMDYWGQGTLVTVSS VL: DIVLTQSPATLSLSPGERATLSCRASESVDNYGISFMNWFQQKPGQAPRLLIYAASNRATGIPARFSGSGSGTDFTLTISSLEPEDFAVYYCQQSKEVPWTFGGGTKVEIKR	0.0023 s⁻¹	620000 M⁻¹ s⁻¹	3.7 nM
humanized C90 variant HC1 + LC1 (antibody, V domains shown, also called Humanized HC1 + LC1; Hu90 HC-1 with Hu90 LC-1) VH: QVQLQESGPGLVKPSQTLSLTCTVSGDSITSGYWNWIRQHPGKGLEYIGYISYSGSTYYNPSLKSRVTISRDTSKNQFSLKLSSVTAADTAVYYCASPNYPFYAMDYWGQGTLVTVSS VL: EIVLTQSPATLSLSPGERATLSCRASESVDNYGISFLNWFQQKPGQAPRLLIYAASNRATGIPARFSGSGSGTDFTLTISSLEPEDFAVYYCQQSKEVPWTFGGGTKVEIKR	0.0024 s⁻¹	610000 M⁻¹ s⁻¹	4 nM
humanized C90 variant HC2 + LC2 (antibody, V domains shown, also called Hu90 HC-2 with Hu90 LC-2) VH: EVQLQESGPGLVKPSQTLSLTCTVSGDSITSGYWNWIRQHPGKGLEYIGYISYSGSTYYNPSLKSRVTISRDTSKNQYSLKLSSVTAADTAVYYCASPNYPFYAMDYWGQGTLVTVSS VL: DIVLTQSPATLSLSPGERATLSCRASESVDNYGISFMNWFQQKPGQAPRLLIYAASNRATGIPARFSGSGSGTDFTLTISSLEPEDFAVYYCQQSKEVPWTFGGGTKVEIKR	0.0022 s⁻¹	610000 M⁻¹ s⁻¹	3.6 nM
humanized C90 variant HC3 + LC3 (antibody, V domains shown, also called Humanized HC3 + LC3; Hu90 HC-3 with Hu90 LC-3) VH: EVQLQESGPGLVKPSETLSLTCSVSGDSITSGYWNWIRQPPGKGLEYIGYISYSGSTYYNPSLKSRVTISRDTSKNQYSLRLSSVTAADTALYYCASPNYPFYAMDYWGQGTRVTVSS VL: DIVMTQSPSSLSASVGDRVTITCRASESVDNYGISFMNWFQQKPGKAPKLLIYAASNLGSGVPSRFSGSGSGTDFTLTISSLQPEDFATYYCQQSKEVPWTFGQGTKVEIKR	0.0023 s⁻¹	680000 M⁻¹ s⁻¹	3.4 nM
